This note sets out measurements from patent US20210324028A1 (Pfizer, published 2021).

The labels stand for the following.
T1: human IL-2Rβ (human, UniProt P14784 27-240, limits assumed)
T1 construct: also called hIL-2Rβ; IL-2 receptor beta
T1 sequence (looked up): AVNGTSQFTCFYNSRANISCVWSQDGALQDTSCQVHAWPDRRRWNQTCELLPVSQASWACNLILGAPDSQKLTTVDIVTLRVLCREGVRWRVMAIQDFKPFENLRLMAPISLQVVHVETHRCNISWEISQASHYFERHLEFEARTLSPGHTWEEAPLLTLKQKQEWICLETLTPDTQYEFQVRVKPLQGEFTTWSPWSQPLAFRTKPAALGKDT

B1: hIL-15 V49R/D30A (ligand)
chain: NWVNVISDLKKIEDLIQSMHIDATLYTESAVHPSCKVTAMKCFLLELQRISLESGDASIHDTVENLIILANNSLSSNGNVTESGCKECEELEEKNIKEFLQSFVHIVQMFINTGGGGSGHHHHHHHHGGGLNDIFEAQKIEWHE
B2: hIL-15 V49R/L69R (ligand)
chain: NWVNVISDLKKIEDLIQSMHIDATLYTESDVHPSCKVTAMKCFLLELQRISLESGDASIHDTVENLIIRANNSLSSNGNVTESGCKECEELEEKNIKEFLQSFVHIVQMFINTGGGGSGHHHHHHHHGGGLNDIFEAQKIEWHE
B3: hIL-15 V49R/N4P (ligand)
chain: NWVPVISDLKKIEDLIQSMHIDATLYTESDVHPSCKVTAMKCFLLELQRISLESGDASIHDTVENLIILANNSLSSNGNVTESGCKECEELEEKNIKEFLQSFVHIVQMFINTGGGGSGHHHHHHHHGGGLNDIFEAQKIEWHE
B4: hIL-15 V49R/I68Q (ligand)
chain: NWVNVISDLKKIEDLIQSMHIDATLYTESDVHPSCKVTAMKCFLLELQRISLESGDASIHDTVENLIQLANNSLSSNGNVTESGCKECEELEEKNIKEFLQSFVHIVQMFINTGGGGSGHHHHHHHHGGGLNDIFEAQKIEWHE
B5: hIL-15 V49R/I68W (ligand)
chain: NWVNVISDLKKIEDLIQSMHIDATLYTESDVHPSCKVTAMKCFLLELQRISLESGDASIHDTVENLIWLANNSLSSNGNVTESGCKECEELEEKNIKEFLQSFVHIVQMFINTGGGGSGHHHHHHHHGGGLNDIFEAQKIEWHE
B6: hIL-15 V49R/S7P (ligand)
chain: NWVNVIPDLKKIEDLIQSMHIDATLYTESDVHPSCKVTAMKCFLLELQRISLESGDASIHDTVENLIILANNSLSSNGNVTESGCKECEELEEKNIKEFLQSFVHIVQMFINTGGGGSGHHHHHHHHGGGLNDIFEAQKIEWHE
B7: hIL-15 V49R/L69N (ligand)
chain: NWVNVISDLKKIEDLIQSMHIDATLYTESDVHPSCKVTAMKCFLLELQRISLESGDASIHDTVENLIINANNSLSSNGNVTESGCKECEELEEKNIKEFLQSFVHIVQMFINTGGGGSGHHHHHHHHGGGLNDIFEAQKIEWHE
B8: hIL-15 V49R/L69Q (ligand)
chain: NWVNVISDLKKIEDLIQSMHIDATLYTESDVHPSCKVTAMKCFLLELQRISLESGDASIHDTVENLIIQANNSLSSNGNVTESGCKECEELEEKNIKEFLQSFVHIVQMFINTGGGGSGHHHHHHHHGGGLNDIFEAQKIEWHE
B9: hIL-15 V49R/L69H (ligand)
chain: NWVNVISDLKKIEDLIQSMHIDATLYTESDVHPSCKVTAMKCFLLELQRISLESGDASIHDTVENLIIHANNSLSSNGNVTESGCKECEELEEKNIKEFLQSFVHIVQMFINTGGGGSGHHHHHHHHGGGLNDIFEAQKIEWHE
B10: hIL-15 V49R/N4R (ligand)
chain: NWVRVISDLKKIEDLIQSMHIDATLYTESDVHPSCKVTAMKCFLLELQRISLESGDASIHDTVENLIILANNSLSSNGNVTESGCKECEELEEKNIKEFLQSFVHIVQMFINTGGGGSGHHHHHHHHGGGLNDIFEAQKIEWHE
B11: hIL-15 V49R/L69Y (ligand)
chain: NWVNVISDLKKIEDLIQSMHIDATLYTESDVHPSCKVTAMKCFLLELQRISLESGDASIHDTVENLIIYANNSLSSNGNVTESGCKECEELEEKNIKEFLQSFVHIVQMFINTGGGGSGHHHHHHHHGGGLNDIFEAQKIEWHE
B12: hIL-15 V49R/N4T (ligand)
chain: NWVTVISDLKKIEDLIQSMHIDATLYTESDVHPSCKVTAMKCFLLELQRISLESGDASIHDTVENLIILANNSLSSNGNVTESGCKECEELEEKNIKEFLQSFVHIVQMFINTGGGGSGHHHHHHHHGGGLNDIFEAQKIEWHE
B13: hIL-15 V49R/L69F (ligand)
chain: NWVNVISDLKKIEDLIQSMHIDATLYTESDVHPSCKVTAMKCFLLELQRISLESGDASIHDTVENLIIFANNSLSSNGNVTESGCKECEELEEKNIKEFLQSFVHIVQMFINTGGGGSGHHHHHHHHGGGLNDIFEAQKIEWHE
B14: hIL-15 V49R/I68G (ligand)
chain: NWVNVISDLKKIEDLIQSMHIDATLYTESDVHPSCKVTAMKCFLLELQRISLESGDASIHDTVENLIGLANNSLSSNGNVTESGCKECEELEEKNIKEFLQSFVHIVQMFINTGGGGSGHHHHHHHHGGGLNDIFEAQKIEWHE
B15: hIL-15 V49R/I68E (ligand)
chain: NWVNVISDLKKIEDLIQSMHIDATLYTESDVHPSCKVTAMKCFLLELQRISLESGDASIHDTVENLIELANNSLSSNGNVTESGCKECEELEEKNIKEFLQSFVHIVQMFINTGGGGSGHHHHHHHHGGGLNDIFEAQKIEWHE
B16: hIL-15 V49R/H32W (ligand)
chain: NWVNVISDLKKIEDLIQSMHIDATLYTESDVWPSCKVTAMKCFLLELQRISLESGDASIHDTVENLIILANNSLSSNGNVTESGCKECEELEEKNIKEFLQSFVHIVQMFINTGGGGSGHHHHHHHHGGGLNDIFEAQKIEWHE
B17: hIL-15 V49R/K11M (ligand)
chain: NWVNVISDLKMIEDLIQSMHIDATLYTESDVHPSCKVTAMKCFLLELQRISLESGDASIHDTVENLIILANNSLSSNGNVTESGCKECEELEEKNIKEFLQSFVHIVQMFINTGGGGSGHHHHHHHHGGGLNDIFEAQKIEWHE
B18: hIL-15 V49R/H32T (ligand)
chain: NWVNVISDLKKIEDLIQSMHIDATLYTESDVTPSCKVTAMKCFLLELQRISLESGDASIHDTVENLIILANNSLSSNGNVTESGCKECEELEEKNIKEFLQSFVHIVQMFINTGGGGSGHHHHHHHHGGGLNDIFEAQKIEWHE
B19: hIL-15 V49R/K11F (ligand)
chain: NWVNVISDLKFIEDLIQSMHIDATLYTESDVHPSCKVTAMKCFLLELQRISLESGDASIHDTVENLIILANNSLSSNGNVTESGCKECEELEEKNIKEFLQSFVHIVQMFINTGGGGSGHHHHHHHHGGGLNDIFEAQKIEWHE
B20: hIL-15 V49R/D30W (ligand)
chain: NWVNVISDLKKIEDLIQSMHIDATLYTESWVHPSCKVTAMKCFLLELQRISLESGDASIHDTVENLIILANNSLSSNGNVTESGCKECEELEEKNIKEFLQSFVHIVQMFINTGGGGSGHHHHHHHHGGGLNDIFEAQKIEWHE
B21: hIL-15 V49R/N4F (ligand)
chain: NWVFVISDLKKIEDLIQSMHIDATLYTESDVHPSCKVTAMKCFLLELQRISLESGDASIHDTVENLIILANNSLSSNGNVTESGCKECEELEEKNIKEFLQSFVHIVQMFINTGGGGSGHHHHHHHHGGGLNDIFEAQKIEWHE

T2 sequence (Q13261 31-205 limits assumed): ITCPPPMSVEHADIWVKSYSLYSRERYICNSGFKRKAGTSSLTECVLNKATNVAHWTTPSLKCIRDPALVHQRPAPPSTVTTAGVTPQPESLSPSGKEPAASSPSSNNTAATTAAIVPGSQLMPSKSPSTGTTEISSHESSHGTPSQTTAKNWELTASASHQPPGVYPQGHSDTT

The first assay concerns the target T2, human IL-15Rα (human, UniProt Q13261 31-205, limits assumed).
T2 construct: also called hIL-15Rα; IL-15 receptor alpha
Nature of the assay: SPR, steady state. A general note: SPR reads the build-up and loss of mass on a sensor chip optically.
Take B1: the affinity, expressed as Kd, was 151 nM.
Consider B2, for which the Kd (in general, the concentration at which binding is half-saturated) was found to be 111 nM.
Molecule B3 had a Kd of 356 nM.
The molecule B4 displayed a dissociation constant (Kd) of 132 nM.
B5 gave a Kd of 93.7 nM.
Same read-out and setting: next, B6: > 500 nM.
On the same count and under the same terms, next, B7: 44 nM; B8: ~43.3 nM.
Still for that read-out and setting: next, B9: 54.5 nM; B10: 56.1 nM.
On to B11, for which the Kd came to 137 nM.
Consider B12, for which the dissociation constant Kd is ~88.6 nM.
The same measure, in the same setting: next, B13: 106 nM.
Regarding B14, the affinity, expressed as Kd, was 101 nM.
Regarding B15, the Kd came out at 122 nM.

Another assay addresses T1, human IL-2Rβ. Nature of the assay: SPR, steady state.
Take B1: the Kd was found to be 273 nM.
The same measure, in the same setting: next, B16: 376 nM; B17: 180 nM; B18: 186 nM.
Same read-out and setting: next, B19: 162 nM; B20: 321 nM; B21: 247 nM.
